Experimental data taken from paper PMC4797267, “The CSB chromatin remodeler and CTCF architectural protein cooperate in response to oxidative stress”.

Molecular target: T1, MBP-CTCF (zinc fingers 1-11) (UniProt P49711 269-579)
T1 sequence: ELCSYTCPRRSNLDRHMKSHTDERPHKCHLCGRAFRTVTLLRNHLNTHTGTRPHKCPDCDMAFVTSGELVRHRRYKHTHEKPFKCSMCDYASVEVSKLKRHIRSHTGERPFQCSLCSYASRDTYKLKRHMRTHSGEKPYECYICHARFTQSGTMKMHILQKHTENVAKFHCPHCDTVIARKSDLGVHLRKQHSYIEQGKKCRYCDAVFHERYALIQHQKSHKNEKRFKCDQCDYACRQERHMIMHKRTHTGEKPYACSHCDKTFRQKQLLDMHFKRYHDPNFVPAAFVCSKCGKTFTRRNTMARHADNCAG
Assay: EMSA; 100 uM ZnSO4, 6 mM Mg2+; no CSB; 30 mM HEPES pH 7.9, 60 mM NaCl, 6% glycerol, 6 mM MgCl2, 100 uM ZnSO4, 0.02% NP40, 30 C 10 min; 1 nM DNA; 5% native PAGE, 0.5x TBE
Conditions: protein: recombinant; tags: MBP; label: 32P (body label, PCR with 32P-dATP); blunt

B1: 200 bp DNA fragment with CTCF-binding site (Fig. S4B) (dsDNA)
DNA 1: CACACCGAGTTCATCCCTTATGTGATGGACCCTCCACGAGGGGGCCCTGGAGAATCCCGGTGCCGAGGCTGCAGAATTGGTCGTAGACAGCTCTAGCACCGCTTAAACGCACGTACGCGCTGTCCCCCGCGTTTTAACCGCCAAGGGGATTACTCCCTAGTCTCCAGGCACGTGTCAGATATATACATCCTGT
DNA 2: ACAGGATGTATATATCTGACACGTGCCTGGAGACTAGGGAGTAATCCCCTTGGCGGTTAAAACGCGGGGGACAGCGCGTACGTGCGTTTAAGCGGTGCTAGAGCTGTCTACGACCAATTCTGCAGCCTCGGCACCGGGATTCTCCAGGGCCCCCTCGTGGAGGGTCCATCACATAAGGGATGAACTCGGTGTG
B1: binds.
